According to patent publication US20120213763A1 (COUNCIL OF SCIENTIFIC AND INDUSTRIAL RESEARCH, published 2012):
Substitutions are numbered along the chain they refer to. Names and notes keep the numbering of the source.

B1: PEGylated SK N-Cys (SEQ ID NO 489), Cys at N - 1 position in SK (other)
chain: CIAGPEWLLDRPSVNNSQLVVSVAGTVEGTNQDISLKFFEIDLTSRPAHGGKTEQGLSPKSKPFATDSGAMSHKLEKADLLKAIQEQLIANVHSNDDYFEVIDFASDATITDRNGKVYFADKDGSVTLPTQPVQEFLLSGHVRVRPYKEKPIQNQAKSVDVEYTVQFTPLNPDDDFRPGLKDTKLLKTLAIGDTITSQELLAQAQSILNKNHPGYTIYERDSSIVTHDNDIFRTILPMDQEFTYRVKNREQAYRINKKSGLNEEINNTDLISEKYYVLKKGEKPYDPFDRSHLKLFTIKYVDVDTNELLKSEQLLTASERNLDFRDLYDPRDKAKLLYNNLDAFGIMDYTLTGKVEDNHDDTNRIITVYMGKRPEGENASYHLAYDKDRYTEEEREVYSYLRYTGTPIPDNPNDK
modifications: PEG (thiol-reactive methoxy-PEG maleimide) on the Cys at N - 1 position
B2: native streptokinase nSK (1-414) ATCC 12449 (SEQ ID NO 1) (other)
chain: IAGPEWLLDRPSVNNSQLVVSVAGTVEGTNQDISLKFFEIDLTSRPAHGGKTEQGLSPKSKPFATDSGAMSHKLEKADLLKAIQEQLIANVHSNDDYFEVIDFASDATITDRNGKVYFADKDGSVTLPTQPVQEFLLSGHVRVRPYKEKPIQNQAKSVDVEYTVQFTPLNPDDDFRPGLKDTKLLKTLAIGDTITSQELLAQAQSILNKNHPGYTIYERDSSIVTHDNDIFRTILPMDQEFTYRVKNREQAYRINKKSGLNEEINNTDLISEKYYVLKKGEKPYDPFDRSHLKLFTIKYVDVDTNELLKSEQLLTASERNLDFRDLYDPRDKAKLLYNNLDAFGIMDYTLTGKVEDNHDDTNRIITVYMGKRPEGENASYHLAYDKDRYTEEEREVYSYLRYTGTPIPDNPNDK
B3: PEGylated SK L260C (SEQ ID NO 50) (other)
chain: B2 chain with L260C
modifications: PEG (thiol-reactive methoxy-PEG maleimide) on Cys 260
B4: PEGylated SK S105C (SEQ ID NO 33) (other)
chain: B2 chain with S105C
modifications: PEG (thiol-reactive methoxy-PEG maleimide) on Cys 105
B5: PEGylated SK D102C (SEQ ID NO 32) (other)
chain: B2 chain with D102C
modifications: PEG (thiol-reactive methoxy-PEG maleimide) on Cys 102
B6: PEGylated SK Ser 258 Cys (SEQ ID NO 49) (other)
chain: B2 chain with S258C
modifications: PEG (thiol-reactive methoxy-PEG maleimide) on Cys 258
B7: PEGylated SK D95C (SEQ ID NO 30) (other)
chain: B2 chain with D95C
modifications: PEG (thiol-reactive methoxy-PEG maleimide) on Cys 95
B8: PEGylated SK D173C (SEQ ID NO 39) (other)
chain: B2 chain with D173C
modifications: PEG (thiol-reactive methoxy-PEG maleimide) on Cys 173
B9: PEGylated SK Lys 257 Cys (SEQ ID NO 48) (other)
chain: B2 chain with K257C
modifications: PEG (thiol-reactive methoxy-PEG maleimide) on Cys 257
B10: PEGylated SK D96C (SEQ ID NO 31) (other)
chain: B2 chain with D96C
modifications: PEG (thiol-reactive methoxy-PEG maleimide) on Cys 96
B11: PEGylated SK N255C (SEQ ID NO 46) (other)
chain: B2 chain with N255C
modifications: PEG (thiol-reactive methoxy-PEG maleimide) on Cys 255
B12: PEGylated SK K121C (SEQ ID NO 35) (other)
chain: B2 chain with K121C
modifications: PEG (thiol-reactive methoxy-PEG maleimide) on Cys 121
B13: PEGylated SK L179C (SEQ ID NO 41) (other)
chain: B2 chain with L179C
modifications: PEG (thiol-reactive methoxy-PEG maleimide) on Cys 179
B14: PEGylated SK C-Cys (SEQ ID NO 490), Cys at C + 1 position in SK (other)
chain: IAGPEWLLDRPSVNNSQLVVSVAGTVEGTNQDISLKFFEIDLTSRPAHGGKTEQGLSPKSKPFATDSGAMSHKLEKADLLKAIQEQLIANVHSNDDYFEVIDFASDATITDRNGKVYFADKDGSVTLPTQPVQEFLLSGHVRVRPYKEKPIQNQAKSVDVEYTVQFTPLNPDDDFRPGLKDTKLLKTLAIGDTITSQELLAQAQSILNKNHPGYTIYERDSSIVTHDNDIFRTILPMDQEFTYRVKNREQAYRINKKSGLNEEINNTDLISEKYYVLKKGEKPYDPFDRSHLKLFTIKYVDVDTNELLKSEQLLTASERNLDFRDLYDPRDKAKLLYNNLDAFGIMDYTLTGKVEDNHDDTNRIITVYMGKRPEGENASYHLAYDKDRYTEEEREVYSYLRYTGTPIPDNPNDKC
modifications: PEG (thiol-reactive methoxy-PEG maleimide) on the Cys at C + 1 position
B15: bi-pegylated NC 1-414 (SEQ ID NO 491), Cys at N - 1 and at C + 1 position in SK (other)
chain: CIAGPEWLLDRPSVNNSQLVVSVAGTVEGTNQDISLKFFEIDLTSRPAHGGKTEQGLSPKSKPFATDSGAMSHKLEKADLLKAIQEQLIANVHSNDDYFEVIDFASDATITDRNGKVYFADKDGSVTLPTQPVQEFLLSGHVRVRPYKEKPIQNQAKSVDVEYTVQFTPLNPDDDFRPGLKDTKLLKTLAIGDTITSQELLAQAQSILNKNHPGYTIYERDSSIVTHDNDIFRTILPMDQEFTYRVKNREQAYRINKKSGLNEEINNTDLISEKYYVLKKGEKPYDPFDRSHLKLFTIKYVDVDTNELLKSEQLLTASERNLDFRDLYDPRDKAKLLYNNLDAFGIMDYTLTGKVEDNHDDTNRIITVYMGKRPEGENASYHLAYDKDRYTEEEREVYSYLRYTGTPIPDNPNDKC
modifications: PEG (methoxy-PEG maleimide, 20 KDa) on the Cys at N - 1 and on the Cys at C + 1
B16: bi-pegylated NC 1-383 (SEQ ID NO 493), Cys at N - 1 and at C + 1 position in SK (1-383, G3) (other)
chain: CIAGPEWLLDRPSVNNSQLVVSVAGTVEGTNQDISLKFFEIDLTSRPAHGGKTEQGLSPKSKPFATDSGAMSHKLEKADLLKAIQEQLIANVHSNDDYFEVIDFASDATITDRNGKVYFADKDGSVTLPTQPVQEFLLSGHVRVRPYKEKPIQNQAKSVDVEYTVQFTPLNPDDDFRPGLKDTKLLKTLAIGDTITSQELLAQAQSILNKNHPGYTIYERDSSIVTHDNDIFRTILPMDQEFTYRVKNREQAYRINKKSGLNEEINNTDLISEKYYVLKKGEKPYDPFDRSHLKLFTIKYVDVDTNELLKSEQLLTASERNLDFRDLYDPRDKAKLLYNNLDAFGIMDYTLTGKVEDNHDDTNRIITVYMGKRPEGENASYHLAGGGC
modifications: PEG on the Cys at N - 1 and on the C-terminal Cys placed after three glycine residues

biological target: human plasminogen (HPG) (human) (UniProt P00747); experiment: cell-based or functional assay
Sequence (P00747 97-810): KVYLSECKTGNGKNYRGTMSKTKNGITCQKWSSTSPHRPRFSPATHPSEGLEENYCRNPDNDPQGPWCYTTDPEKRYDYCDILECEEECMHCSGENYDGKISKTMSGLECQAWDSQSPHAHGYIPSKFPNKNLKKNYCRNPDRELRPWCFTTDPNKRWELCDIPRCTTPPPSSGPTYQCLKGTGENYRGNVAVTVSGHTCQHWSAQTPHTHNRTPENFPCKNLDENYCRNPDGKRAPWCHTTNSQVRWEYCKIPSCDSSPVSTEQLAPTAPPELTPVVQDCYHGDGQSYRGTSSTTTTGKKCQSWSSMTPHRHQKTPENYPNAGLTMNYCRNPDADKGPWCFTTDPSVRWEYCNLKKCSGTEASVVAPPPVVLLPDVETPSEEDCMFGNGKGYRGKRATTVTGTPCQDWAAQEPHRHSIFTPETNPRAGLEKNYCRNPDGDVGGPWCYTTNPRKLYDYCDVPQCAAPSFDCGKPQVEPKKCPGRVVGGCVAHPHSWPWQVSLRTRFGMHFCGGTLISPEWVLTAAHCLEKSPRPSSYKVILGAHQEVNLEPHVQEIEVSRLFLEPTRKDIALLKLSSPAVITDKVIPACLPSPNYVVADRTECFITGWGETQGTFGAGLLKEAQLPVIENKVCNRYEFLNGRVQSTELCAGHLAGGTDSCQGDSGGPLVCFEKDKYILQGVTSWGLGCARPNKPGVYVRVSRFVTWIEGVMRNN

Molecule	% Plasminogen activation [%]
PEGylated SK C-383 Cys (SEQ ID NO 492), Cys at C + 1 position of SK 1-383, G3 (from UniProt P00779 27-409)	92

biological target: T1, human plasminogen (HPG) (human, UniProt P00747 97-810); experiment: cell-based or functional assay
T1 sequence (P00747 97-810): as above

Molecule	% Plasminogen activation [%]
B1	88
B2	100
B3	100
B4	76
B5	74
B6	100
B7	96
B8	72
B9	92
B10	98
B11	98
B12	95
B13	22
B14	95

biological target: T1, human plasminogen (HPG); experiment: cell-based or functional assay; remark: another data set of the same source

Molecule	% Plasminogen Activation* (pre-complexed with equimolar plasmin) [%]	% Plasminogen activation [%]	Lag [min]
B15	88	< 5	14
B16	92	< 5	12
B2	100	100	1
